Test results from US20140328762A1 (published 2014).

Key:
JunLZ-Sb3b5 beacon = JunLZ-Sb3b5 beacon (UniProt P0AEX9 27-392 = MBP); assay: fluorescence screening assay (FIG. 11)
Method: (§1) The graphs show a comparison of binding-induced fluorescence enhancement of JunLZ beacons. Concentration for all beacons is 1.0 and concentration of FosLZ or scrFosLZ is 10.0 μM. The assay was carried out in 0.1 M PBS, pH7.2 at room temperature. […] Numbers above the curves represent signal to noise ratios calculated from the maxim emission values that centered around 585 nm.
(§2) The purified fusion proteins were used directly without removing the MBP fusion partner. To prepare the beacons, TAMRA fluorophores were attached to the fusion proteins via the maleimide chemistry.

JunLZ-Sb1b3 beacon = JunLZ-Sb1b3 beacon (UniProt P0AEX9 27-392 = MBP); assay: fluorescence screening assay (FIG. 11)
Method: as §1, §2

JunLZ-Sb1b4 beacon = JunLZ-Sb1b4 beacon (UniProt P0AEX9 27-392 = MBP); assay: fluorescence screening assay (FIG. 11)
Method: as §1, §2

JunLZ-Lb1b3 beacon = JunLZ-Lb1b3 beacon (UniProt P0AEX9 27-392 = MBP); assay: fluorescence emission screening (FIG. 11)
Method: as §1, §2

JunLZ-Lb3b5 beacon = JunLZ-Lb3b5 beacon (UniProt P0AEX9 27-392 = MBP); assay: fluorescence emission screening (FIG. 11)
Method: as §1, §2

JunLZ-Lb2b5 beacon = JunLZ-Lb2b5 beacon (UniProt P0AEX9 27-392 = MBP); assay: fluorescence emission screening (FIG. 11)
Method: as §1, §2

JunLZ-Lb1b4 beacon = JunLZ-Lb1b4 beacon (UniProt P0AEX9 27-392 = MBP); assay: fluorescence emission screening (FIG. 11)
Method: as §1, §2

Measured: binding result

B1: scrFosLZ (MBP-scrFosLZ, fusion protein of MBP and the scrambled cFos leucine zipper) (other, not shown: large carriers)
chain: GGSGGTDTAQAETDQAEDEKSAAQTEIANALKEKEKAEFILA
notes: Negative control; also called scrambled FosLZ
no binding (tested: 10.0 µM): JunLZ-Sb3b5 beacon | JunLZ-Sb1b3 beacon | JunLZ-Sb1b4 beacon | JunLZ-Lb1b3 beacon | JunLZ-Lb3b5 beacon | JunLZ-Lb2b5 beacon | JunLZ-Lb1b4 beacon
